Source: US11504389

Columns and labels:
Assay in all cases: cell_activity
[1] = tested on: ZFP SBS#52366 (synthetic); settings: human iPSC neurons, 3E5 VG/cell
[2] = tested on: ZFP SBS#52389 (synthetic); settings: AAV2/9 CMV-52389-KRAB, 3E5 VG/cell, mouse cortical neurons
[3] = tested on: ZFP SBS#52322 (synthetic); settings: mouse hippocampus in vivo, mean MAPT mRNA reduction
[4] = tested on: ZFP SBS#57880 (synthetic); settings: human iPSC neurons, 3E5 VG/cell
[5] = tested on: ZFP SBS#57890 (synthetic); settings: human iPSC neurons, 3E5 VG/cell; poor mismatch tolerance

**Q.** How did the activity [1] turn out when “TCTGTCGACTATCAG (double strand) [52366 human MAPT site]” was run?
**A.** 87 % repression

**Q.** How did the activity [2] turn out when “CCGTTGCGCCTGATTGATGCCCAGCTCC (double strand) [52389 target]” was run?
**A.** 98 % repression

**Q.** “GTGGCGGAGACTGAGAGCGCGCGCGGCC (double strand) [52322 target]” was tested. Which activity [3] did it give?
**A.** 66 % repression

**Q.** Which activity [4] does the source give for “GCAGTCACCGCCACCCACC (double strand) [57880 human MAPT site]” here?
**A.** 95 % repression

**Q.** For “ACCCACCAGCTCCGGCAC (double strand) [57890 human MAPT site]”, which activity [5] is on record?
**A.** 45 % repression
